Eleven molecules from patent KR20120135868A (dated 2012) can be followed below.

Positions count from the first letter of the chain named.

The chains are these.
T1: 인간 FcεRI의 α 서브유니트(FcεRIα)의 가용성 단편 (human, UniProt P12319 26-205, limits assumed)
T1 construct: domain: 가용성 단편 (soluble fragment); also called soluble sFcεRI; sFcεRI
T1 sequence (looked up): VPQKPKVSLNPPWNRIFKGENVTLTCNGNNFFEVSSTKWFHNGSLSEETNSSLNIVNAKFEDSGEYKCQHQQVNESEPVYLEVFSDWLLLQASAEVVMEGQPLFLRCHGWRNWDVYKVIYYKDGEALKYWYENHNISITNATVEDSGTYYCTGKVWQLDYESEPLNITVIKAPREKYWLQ

B1: NPB 304 scFv (scFv, V domains shown)
VH: EVQLLESGGGLVQPGGSLRLSCAASGLAFSDYYMSWVRLAPGKGLEWVSVISPGSGSKYYADSVKGRFTISRDNSKNTLYLQMNSLRAEDTAVYYCARYVGGMMMKRDFYYAMDVWGQGTLVTVSS
VL: QSVLTQPPSASGTPGQRVTISCSGSSSNIGSNAVNWYQQLPGTAPKLLIYYDSHRPSEVPDRFSGSKSGTSASLAISGLRSEDEADYYCGTWDSSLSGYVFGGGTKLTVL
B2: NPB 305 scFv (scFv, V domains shown)
VH: B1 VH
VL: QSVLTQPPSASGTPGQRVTISCTGSSSNIGNNDVSWYQQLPGTAPKLLIYSNNQRPSGVPDRFSGSKSGTSASLAISGLRSGDEADYYCGTWDYSLSGYVFGGGTKLTVL
B3: NPB 303 scFv (scFv, V domains shown)
VH: EVQLVQSGAEVKKSGESLKISCKGFGYTFTRNWIGWVRQMPGKGLEWMGIIYPGDSDTRYSPSFQGQVTISADKSISTAYLQWSSLKASDTAMYYCARDVGNGDYGLDVWGQGTTVTVSS
VL: QSALTQPASVSGSPGQSITISCTGTSSDIGGYDFVSWYQQHPGKAPKLIIYDVTRRPSEISNRFSASKSGNTASLTISGLQAEDEADYYCSSYTSSSTPYVFGTGTKVTVL
B4: NPB 312 scFv (scFv, V domains shown)
VH: EVQLVQSGAEVKKPGESLKISCEGSGYRFSSYWIAWVRQKPGKGLEWMGIIYPYDSDTKYGPSFGGQVTISADKSINTAYLEWSSLKASDTAMYYCARLALIRGSIIFDYWGLGTLVTVSS
VL: QSALTQPRSVSGSPGQSVTISCTGSRGDVGGYDFVSWYRQYPGEAPQLIIYDVSGRPSGVPDRFSGSKSGNTASLTISGLQPEDEADYYCSSYAGSEIYVFGTGTKVTVL
B5: NPB 306 scFv (scFv, V domains shown)
VH: B4 VH
VL: QSVLTQPSSVSGAPGQRVTISCTGSSSNIGAGYDVHWYQHLPGTAPKLLIYGINIRPSGVPDRFSGSKSDTSASLAITALQAEDEADYYCQSYDSSLRSVVFGGGTKLTVL
B6: NPB 309 scFv (scFv, V domains shown)
VH: B4 VH
VL: QSVLTQPSSVSGAPGQRVTISCTGSSSNIGADYDVHWYQLVSGAAPKLLIYGYTNRPSGVPDRFSGSKSGTSASLVIAGLQAEDEADYYCQSYDSSLSEVVFGGGTKLTVL
B7: NPB 314 scFv (scFv, V domains shown)
VH: EVQLVQSGAEVKKPGESLKISCKGSGYTFTKYWIGWVRQMPGKGLEWMGIIYPGDSDTTYSPSFQGQVTISADKSISTAYLQWSSLKASDTAMYYCAKDNPFTGSFDIWGQGTMVTVSS
VL: QSALTQPASMSGFPGQSITISCTGTRDDVGNYDLVSWYQQQPAKAPKLLIYEDNKRPSGVSSRFSGSKSGSTASLTISGLQTEDEADYYCCSYAGDYTYVFGTGTKVTVL
B8: NPB 307 scFv (scFv, V domains shown)
VH: B7 VH with P14S, S25F, T28R, K31S, T59R, Q111L
VL: QSALTQPRSVSGSPGQSVTISCTGTSNDVGGYTYVSWYQQHPGKAPKLMIYDVSKRPSGVPDRFSGSKSGNTASLTISGLQAEDEADYYCSSYAGSYTWVFGGGTKLTVL
B9: NPB 308 scFv (scFv, V domains shown)
VH: B7 VH
VL: B8 VL
B10: NPB 302 scFv (scFv, V domains shown)
VH: EVQLVESGAEVKKPGSSVKVSCKASGGTFSSYAISWVRQAPGQGLEWMGRIIPILGIANYAQKFQGRVTITADKSTSTAYMELSSLRSEDTAVYYCARVNPFGYYYAMDVWGQGTTVTVSS
VL: QSVLTQPPSASGTPGQRVTISCSGSTSNIGGNSVNWYQQLPGAAPKLLIYANIQRPSGVPDRFSGSKSGTSASLAISGLQSEDEADYYCASWDDSRNGYVFGTGTKVTVL
B11: NPB 313 scFv (scFv, V domains shown)
VH: B10 VH with E6Q
VL: DIQMTQSPSSVSASVGDRVTIPCRASQGISSWLAWYQQKPGKAPKLLIYAASNLQSGVPSRFSGSGSGTDFTLTISSLQPEDSATYYCQQTDSFPLTFGGGTKVEIK

The test addresses T1, 인간 FcεRI의 α 서브유니트(FcεRIα)의 가용성 단편. The test can be described thus: phage ELISA, scFv on phage, selected after panning on coated FcεRI.
With B1, the binding result is listed as “binds”.
B2: the binding result is reported as “binds”.
Then B3, with “binds”.
B4: the binding result is given as “binds”.
Take B5: the binding result was “binds”.
As for B6, the binding result is “binds”.
Then B7, with “binds”.
Take B8: the binding result was “binds”.
Turning to B9, the binding result is “binds”.
For B10, the binding result was “binds”.
Then B11, with “binds”.
